{"source": "patent US6150139A", "about": "“Bacterocide compositions and their preparation from micrococcus varians” (priority 1995, dated 2000)", "key": {"[1]": {"tested_on": "Lactobacillus helveticus (N 2)", "test": "inactivation by enzymes, agar well test", "assay_type": "physicochemical", "conditions": "for Inhibition halo diameter after enzyme treatment: 60 min"}, "[2]": {"tested_on": "Lactobacillus helveticus (N 2)", "test": "resistance to pH, agar well test", "assay_type": "physicochemical", "conditions": "readjusted to pH 6-7"}, "[3]": {"tested_on": "Lactobacillus helveticus (N 2)", "test": "resistance to heat, agar well test", "assay_type": "physicochemical", "conditions": "for Inhibition halos (mm): 100 °C, pH 7"}, "[4]": {"tested_on": "Lactobacillus bulgaricus (YL 5)", "test": "inactivation by enzymes, agar well test", "assay_type": "physicochemical", "conditions": "60 min, halo after treatment"}, "Gram-negative bacteria": {"tested_on": "Gram-negative bacteria", "test": "agar well test, inhibition spectrum, Gram-negative bacteria", "assay_type": "cell-based", "conditions": "results of Table V", "description": "The inhibition spectrum of the supernatant is thus determined."}, "[5]": {"tested_on": "Lactobacillus helveticus (N 2)", "test": "resistance to heat and to pH, agar well test", "assay_type": "physicochemical", "conditions": "for Inhibition halo (mm): 115 °C"}, "[6]": {"tested_on": "strain of Lactococcus lactis which produces lacticin 481", "test": "inhibition spectrum test on the lacticin 481 producer", "assay_type": "cell-based", "description": "When the strain of Lactococcus lactis which produces lacticin 481 is inoculated in the presence of a […] extract, as previously described in the inhibition spectrum test, the growth of the said strain is seen to be inhibited. The strain of Lactococcus lactis which produces lacticin 481 is immune to its own bacteriocin, lacticin 481, but is not immune to the […] produced by either of the two Micrococcus varians strains according to the present invention."}, "[7]": {"conditions": "Catalase (SIGMA C-10) 5 mg/ml, incubation 30 °C"}, "[8]": {"conditions": "Ficin (SIGMA F-3266) 5 mg/ml, incubation 37 °C"}, "[9]": {"conditions": "Pronase E (SIGMA P-8038) 5 mg/ml, incubation 37 °C"}, "[10]": {"conditions": "Proteinase K (MERCK 1000 144) 5 mg/ml, incubation 37 °C"}}}
{"substance": "variacin: bacteriocin from Micrococcus varians strains CNCM I-1586 and CNCM I-1587, amino acid sequence SEQ ID NO:1 (GSGVIPTISHECHMNSFQFVFTCCS)", "values": [{"measurement": "Inhibition halo diameter after enzyme treatment", "setting": "[1]; [7]", "value": 27, "unit": "mm"}, {"measurement": "Inhibition halo diameter after enzyme treatment", "setting": "[1]; [8]", "value": 0, "unit": "mm"}, {"measurement": "Inhibition halo diameter after enzyme treatment", "setting": "[1]; [9]", "value": 0, "unit": "mm"}, {"measurement": "Inhibition halo diameter after enzyme treatment", "setting": "[1]; [10]", "value": 0, "unit": "mm"}, {"measurement": "effect of proteolytic enzymes on bactericidal activity", "setting": "[1]; all proteolytic enzymes of Tables I and II, indicator strains N 2 and YL 5", "value": "suppress the bactericidal activity"}, {"measurement": "influence of catalase on bactericidal activity", "setting": "[1]; two indicator strains N 2 and YL 5", "value": "not found to exert any influence"}, {"measurement": "Inhibition halos", "setting": "[2]; pH 2, 37 °C for 60 min", "value": 27, "unit": "mm"}, {"measurement": "Inhibition halos", "setting": "[2]; pH 4, 37 °C for 60 min", "value": 27, "unit": "mm"}, {"measurement": "Inhibition halos", "setting": "[2]; pH 6, 37 °C for 60 min", "value": 27, "unit": "mm"}, {"measurement": "Inhibition halos", "setting": "[2]; pH 8, 37 °C for 60 min", "value": 27, "unit": "mm"}, {"measurement": "Inhibition halos", "setting": "[2]; pH 10, 37 °C for 60 min", "value": 27, "unit": "mm"}, {"measurement": "Inhibition halos (mm)", "setting": "[3]; incubation time 15 min", "value": 27, "unit": "mm"}, {"measurement": "Inhibition halos (mm)", "setting": "[3]; incubation time 30 min", "value": 27, "unit": "mm"}, {"measurement": "Inhibition halos (mm)", "setting": "[3]; incubation time 60 min", "value": 27, "unit": "mm"}, {"measurement": "bactericidal activity after heating", "setting": "[3]; 60 min incubation at 100 °C", "value": "not compromised"}, {"measurement": "Inactivation (mm)", "setting": "[4]; [7]", "value": 27, "unit": "mm"}, {"measurement": "Inactivation (mm)", "setting": "[4]; [8]", "value": 0, "unit": "mm"}, {"measurement": "Inactivation (mm)", "setting": "[4]; [9]", "value": 0, "unit": "mm"}, {"measurement": "Inactivation (mm)", "setting": "[4]; [10]", "value": 0, "unit": "mm"}, {"measurement": "inhibitory effect on the growth of Gram-negative bacteria", "setting": "Gram-negative bacteria", "value": "does not exert any inhibitory effect"}, {"measurement": "Inhibition halo (mm)", "setting": "[5]; pH 4, 20 min", "value": 27, "unit": "mm"}, {"measurement": "bactericidal activity after pH combined with heat", "setting": "[5]; pH 4 or 7, combined with an elevated temperature", "value": "not compromised"}, {"measurement": "Inhibition halo (mm)", "setting": "[5]; pH 7, 20 min", "value": 27, "unit": "mm"}]}
{"substance": "lacticin 481", "values": [{"measurement": "growth of the lacticin 481-producing strain in presence of bacteriocin", "setting": "[6]", "value": "immune"}]}
